From patent US20080206239A1 (ANTITOPE, published 2008)

B1: antibody of heavy chain SEQ. ID. No. 1 and light chain SEQ. ID. No. 4 (antibody, human IgG1, V domains shown)
VH: EVKLEESGGGLVQPGGSMKLSCVASGFIFSNHWMNWVRQSPEKGLEWVAEIRSKSINSATHYAESVKGRFTISRDDSKSAVYLQMTDLRTEDTGVYYCSRNYYGSTYDYWGQGTTLTVSS
VL: DILLTQSPAILSLSPGERATLSCRASQFVGSSIHWYQQKTNQSPKLLIKYASESMSGIPSRFSGSGSGTDFTLTINSLESEDAADYYCQQSHSWPFTFGQGTNLEIK
B2: Composite Human Antibody of heavy chain SEQ. ID. No. 6 and light chain SEQ. ID. No. 4 (antibody, human IgG1, V domains shown)
VH: EVQLVESGGGLVQPGGSLKLSCVASGFIFSNHWMNWVRQAPGKGLEWVAEIRSKSINSATHYAESVKGRFTISRDDSKSIVYLQMNSLKTEDTGVYYCSRNYYGSTYDYWGQGTTVTVSS
VL: DILLTQSPAILSLSPGERATLSCRASQFVGSSIHWYQQKTNQSPKLLIKYASESMSGIPSRFSGSGSGTDFTLTINSLESEDAADYYCQQSHSWPFTFGQGTNLEIK
B3: Composite Human Antibody 7/4 (antibody, human IgG1, V domains shown)
VH: EVQLVESGGGLVQPGGSLKLSCAASGFIFSNHWMNWVRQAPGKGLEWVAEIRSKSINSATHYAESVKGRFTISRDDSKSIVYLQMNSLKTEDTGVYYCSRNYYGSTYDYWGQGTTVTVSS
VL: DILLTQSPAILSLSPGERATLSCRASQFVGSSIHWYQQKTNQSPKLLIKYASESMSGIPSRFSGSGSGTDFTLTINSLESEDAADYYCQQSHSWPFTFGQGTNLEIK
B4: Composite Human Antibody of heavy chain SEQ. ID. No. 6 and light chain SEQ. ID. No. 10 (antibody, human IgG1, V domains shown)
VH: EVQLVESGGGLVQPGGSLKLSCVASGFIFSNHWMNWVRQAPGKGLEWVAEIRSKSINSATHYAESVKGRFTISRDDSKSIVYLQMNSLKTEDTGVYYCSRNYYGSTYDYWGQGTTVTVSS
VL: DILLTQSPATLSLSPGERATLSCRASQFVGSSIHWYQQKTNQSPKLLIKYASESMSGIPSRFSGSGSGTDFTLTINSLEAEDAADYYCQQSHSWPFTFGQGTRLEIK
B5: Composite Human Antibody of heavy chain SEQ. ID. No. 3 and light chain SEQ. ID. No. 9 (antibody, human IgG1, V domains shown)
VH: EVQLVESGGGLVQPGGSLKLSCVASGFIFSNHWMNWVRQAPGKGLEWVAEIRSKSINSATHYAESVKGRFTISRDDSKSIVYLQMTDLRTEDTGVYYCSRNYYGSTYDYWGQGTTVTVSS
VL: DILLTQSPATLSLSPGERATLSCRASQFVGSSIHWYQQKTNQSPKLLIKYASESMSGIPSRFSGSGSGTDFTLTINSLESEDAADYYCQQSHSWPFTFGQGTRLEIK
B6: Composite Human Antibody of heavy chain SEQ. ID. No. 6 and light chain SEQ. ID. No. 9 (antibody, human IgG1, V domains shown)
VH: EVQLVESGGGLVQPGGSLKLSCVASGFIFSNHWMNWVRQAPGKGLEWVAEIRSKSINSATHYAESVKGRFTISRDDSKSIVYLQMNSLKTEDTGVYYCSRNYYGSTYDYWGQGTTVTVSS
VL: DILLTQSPATLSLSPGERATLSCRASQFVGSSIHWYQQKTNQSPKLLIKYASESMSGIPSRFSGSGSGTDFTLTINSLESEDAADYYCQQSHSWPFTFGQGTRLEIK
B7: Composite Human Antibody 5/10 (antibody, human IgG1, V domains shown)
VH: EVQLVESGGGLVQPGGSLKLSCVASGFIFSNHWMNWVRQAPGKGLEWVAEIRSKSINSATHYAESVKGRFTISRDDSKSIVYLQMNDLKTEDTGVYYCSRNYYGSTYDYWGQGTTVTVSS
VL: DILLTQSPATLSLSPGERATLSCRASQFVGSSIHWYQQKTNQSPKLLIKYASESMSGIPSRFSGSGSGTDFTLTINSLEAEDAADYYCQQSHSWPFTFGQGTRLEIK
B8: Composite Human Antibody of heavy chain SEQ. ID. No. 3 and light chain SEQ. ID. No. 11 (antibody, human IgG1, V domains shown)
VH: EVQLVESGGGLVQPGGSLKLSCVASGFIFSNHWMNWVRQAPGKGLEWVAEIRSKSINSATHYAESVKGRFTISRDDSKSIVYLQMTDLRTEDTGVYYCSRNYYGSTYDYWGQGTTVTVSS
VL: DILLTQSPATLSLSPGERATLSCRASQFVGSSIHWYQQKTDQSPKLLIKYASESMSGIPSRFSGSGSGTDFTLTINSLEAEDAADYYCQQSHSWPFTFGQGTRLEIK
B9: Composite Human Antibody of heavy chain SEQ. ID. No. 7 and light chain SEQ. ID. No. 11 (antibody, human IgG1, V domains shown)
VH: EVQLVESGGGLVQPGGSLKLSCAASGFIFSNHWMNWVRQAPGKGLEWVAEIRSKSINSATHYAESVKGRFTISRDDSKSIVYLQMNSLKTEDTGVYYCSRNYYGSTYDYWGQGTTVTVSS
VL: DILLTQSPATLSLSPGERATLSCRASQFVGSSIHWYQQKTDQSPKLLIKYASESMSGIPSRFSGSGSGTDFTLTINSLEAEDAADYYCQQSHSWPFTFGQGTRLEIK
B10: Composite Human Antibody of heavy chain SEQ. ID. No. 5 and light chain SEQ. ID. No. 11 (antibody, human IgG1, V domains shown)
VH: EVQLVESGGGLVQPGGSLKLSCVASGFIFSNHWMNWVRQAPGKGLEWVAEIRSKSINSATHYAESVKGRFTISRDDSKSIVYLQMNDLKTEDTGVYYCSRNYYGSTYDYWGQGTTVTVSS
VL: DILLTQSPATLSLSPGERATLSCRASQFVGSSIHWYQQKTDQSPKLLIKYASESMSGIPSRFSGSGSGTDFTLTINSLEAEDAADYYCQQSHSWPFTFGQGTRLEIK
B11: Composite Human Antibody 7/10 (i.e. containing SEQ. ID. No.s 7 and 10) (antibody, human IgG1, V domains shown)
VH: EVQLVESGGGLVQPGGSLKLSCAASGFIFSNHWMNWVRQAPGKGLEWVAEIRSKSINSATHYAESVKGRFTISRDDSKSIVYLQMNSLKTEDTGVYYCSRNYYGSTYDYWGQGTTVTVSS
VL: DILLTQSPATLSLSPGERATLSCRASQFVGSSIHWYQQKTNQSPKLLIKYASESMSGIPSRFSGSGSGTDFTLTINSLEAEDAADYYCQQSHSWPFTFGQGTRLEIK
B12: antibody of heavy chain SEQ. ID. No. 1 and light chain SEQ. ID. No. 10 (antibody, human IgG1, V domains shown)
VH: EVKLEESGGGLVQPGGSMKLSCVASGFIFSNHWMNWVRQSPEKGLEWVAEIRSKSINSATHYAESVKGRFTISRDDSKSAVYLQMTDLRTEDTGVYYCSRNYYGSTYDYWGQGTTLTVSS
VL: DILLTQSPATLSLSPGERATLSCRASQFVGSSIHWYQQKTNQSPKLLIKYASESMSGIPSRFSGSGSGTDFTLTINSLEAEDAADYYCQQSHSWPFTFGQGTRLEIK
B13: primary Composite Human Antibody (heavy chain SEQ. ID. No. 3 and light chain SEQ. ID. No. 4) (antibody, human IgG1, V domains shown)
VH: EVQLVESGGGLVQPGGSLKLSCVASGFIFSNHWMNWVRQAPGKGLEWVAEIRSKSINSATHYAESVKGRFTISRDDSKSIVYLQMTDLRTEDTGVYYCSRNYYGSTYDYWGQGTTVTVSS
VL: DILLTQSPAILSLSPGERATLSCRASQFVGSSIHWYQQKTNQSPKLLIKYASESMSGIPSRFSGSGSGTDFTLTINSLESEDAADYYCQQSHSWPFTFGQGTNLEIK
B14: antibody of heavy chain SEQ. ID. No. 1 and light chain SEQ. ID. No. 11 (antibody, human IgG1, V domains shown)
VH: EVKLEESGGGLVQPGGSMKLSCVASGFIFSNHWMNWVRQSPEKGLEWVAEIRSKSINSATHYAESVKGRFTISRDDSKSAVYLQMTDLRTEDTGVYYCSRNYYGSTYDYWGQGTTLTVSS
VL: DILLTQSPATLSLSPGERATLSCRASQFVGSSIHWYQQKTDQSPKLLIKYASESMSGIPSRFSGSGSGTDFTLTINSLEAEDAADYYCQQSHSWPFTFGQGTRLEIK
B15: Composite Human Antibody of heavy chain SEQ. ID. No. 3 and light chain SEQ. ID. No. 10 (antibody, human IgG1, V domains shown)
VH: EVQLVESGGGLVQPGGSLKLSCVASGFIFSNHWMNWVRQAPGKGLEWVAEIRSKSINSATHYAESVKGRFTISRDDSKSIVYLQMTDLRTEDTGVYYCSRNYYGSTYDYWGQGTTVTVSS
VL: DILLTQSPATLSLSPGERATLSCRASQFVGSSIHWYQQKTNQSPKLLIKYASESMSGIPSRFSGSGSGTDFTLTINSLEAEDAADYYCQQSHSWPFTFGQGTRLEIK
B16: Composite Human Antibody of heavy chain SEQ. ID. No. 5 and light chain SEQ. ID. No. 4 (antibody, human IgG1, V domains shown)
VH: EVQLVESGGGLVQPGGSLKLSCVASGFIFSNHWMNWVRQAPGKGLEWVAEIRSKSINSATHYAESVKGRFTISRDDSKSIVYLQMNDLKTEDTGVYYCSRNYYGSTYDYWGQGTTVTVSS
VL: DILLTQSPAILSLSPGERATLSCRASQFVGSSIHWYQQKTNQSPKLLIKYASESMSGIPSRFSGSGSGTDFTLTINSLESEDAADYYCQQSHSWPFTFGQGTNLEIK
B17: antibody of heavy chain SEQ. ID. No. 1 and light chain SEQ. ID. No. 9 (antibody, human IgG1, V domains shown)
VH: EVKLEESGGGLVQPGGSMKLSCVASGFIFSNHWMNWVRQSPEKGLEWVAEIRSKSINSATHYAESVKGRFTISRDDSKSAVYLQMTDLRTEDTGVYYCSRNYYGSTYDYWGQGTTLTVSS
VL: DILLTQSPATLSLSPGERATLSCRASQFVGSSIHWYQQKTNQSPKLLIKYASESMSGIPSRFSGSGSGTDFTLTINSLESEDAADYYCQQSHSWPFTFGQGTRLEIK
B18: Composite Human Antibody of heavy chain SEQ. ID. No. 5 and light chain SEQ. ID. No. 9 (antibody, human IgG1, V domains shown)
VH: EVQLVESGGGLVQPGGSLKLSCVASGFIFSNHWMNWVRQAPGKGLEWVAEIRSKSINSATHYAESVKGRFTISRDDSKSIVYLQMNDLKTEDTGVYYCSRNYYGSTYDYWGQGTTVTVSS
VL: DILLTQSPATLSLSPGERATLSCRASQFVGSSIHWYQQKTNQSPKLLIKYASESMSGIPSRFSGSGSGTDFTLTINSLESEDAADYYCQQSHSWPFTFGQGTRLEIK
B19: Composite Human Antibody of heavy chain SEQ. ID. No. 6 and light chain SEQ. ID. No. 11 (antibody, human IgG1, V domains shown)
VH: EVQLVESGGGLVQPGGSLKLSCVASGFIFSNHWMNWVRQAPGKGLEWVAEIRSKSINSATHYAESVKGRFTISRDDSKSIVYLQMNSLKTEDTGVYYCSRNYYGSTYDYWGQGTTVTVSS
VL: DILLTQSPATLSLSPGERATLSCRASQFVGSSIHWYQQKTDQSPKLLIKYASESMSGIPSRFSGSGSGTDFTLTINSLEAEDAADYYCQQSHSWPFTFGQGTRLEIK
B20: Composite Human Antibody 7/9 (antibody, human IgG1, V domains shown)
VH: EVQLVESGGGLVQPGGSLKLSCAASGFIFSNHWMNWVRQAPGKGLEWVAEIRSKSINSATHYAESVKGRFTISRDDSKSIVYLQMNSLKTEDTGVYYCSRNYYGSTYDYWGQGTTVTVSS
VL: DILLTQSPATLSLSPGERATLSCRASQFVGSSIHWYQQKTNQSPKLLIKYASESMSGIPSRFSGSGSGTDFTLTINSLESEDAADYYCQQSHSWPFTFGQGTRLEIK

Target: human TNFα (human, UniProt P01375 77-233)
Experiment: cell-based or functional assay

Chain of human TNFα (P01375 77-233 limits assumed): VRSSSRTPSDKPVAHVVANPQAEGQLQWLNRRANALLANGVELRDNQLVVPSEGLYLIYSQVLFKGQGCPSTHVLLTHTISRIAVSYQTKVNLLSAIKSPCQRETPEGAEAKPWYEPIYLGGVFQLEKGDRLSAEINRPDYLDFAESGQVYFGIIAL

| Binder | Ratio of Activities compared to Chimeric Antibody (fold difference, WEHI-164 protection assay at 25 ng/ml) [fold] |
| --- | --- |
| B1 | 1.51 |
| B2 | 1.38 |
| B3 | 1.05 |
| B4 | 1.63 |
| B5 | 2.14 |
| B6 | 1.77 |
| B7 | 1.17 |
| B8 | 15.2 |
| B9 | 106 |
| B10 | 196 |
| B11 | 0.98 |
| B12 | 1.31 |
| B13 | 2.28 |
| B14 | 16.9 |
| B15 | 2.51 |
| B16 | 1.28 |
| B17 | 1.28 |
| B18 | 1.32 |
| B19 | 134 |
| B20 | 0.95 |
